T1: FcγRIIb extracellular domain with C-terminal His tag (human, UniProt P31994 43-217)
T1 construct: extracellular domain; Soluble receptor expressed in FreeStyle293 cells and used as analyte in Biacore; also called FcgRIIb; 2b; not shown: His tag attached to the C terminus
T1 sequence (looked up): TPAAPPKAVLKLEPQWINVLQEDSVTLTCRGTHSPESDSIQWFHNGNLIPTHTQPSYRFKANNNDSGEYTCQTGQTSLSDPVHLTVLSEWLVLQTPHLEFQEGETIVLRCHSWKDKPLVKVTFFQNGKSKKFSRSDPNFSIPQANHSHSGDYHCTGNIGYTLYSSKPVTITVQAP

T2: FcγRIIb (human, UniProt P31994 43-217)
T2 construct: extracellular domain; Soluble extracellular domain with C-terminal His tag, used as analyte in Biacore; also called FcgRIIb; 2b; not shown: His tag attached to the C terminus
T2 sequence (looked up): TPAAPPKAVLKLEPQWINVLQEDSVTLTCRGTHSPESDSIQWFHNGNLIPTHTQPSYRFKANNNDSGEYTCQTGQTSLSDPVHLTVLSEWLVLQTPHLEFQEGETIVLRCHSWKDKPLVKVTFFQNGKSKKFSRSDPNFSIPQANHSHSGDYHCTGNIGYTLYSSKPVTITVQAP


Columns and labels:
[1] = target: T1, FcγRIIb extracellular domain with …; experiment: SPR (Biacore), antibody captured, FcγR as analyte; binding activity relative to control heterodimerized antibody
Protocol: (§1) The heterodimerized antibodies He Abs in which one of the H chains was introduced with an alteration were assayed for their binding activities to each activating FcγR and inhibitory FcγR according to the method described in Example 4. […] The activating FcγRs in FIGS. 26, 27, 28, and 29 are FcγRIa, FcγRIIa (R), FcγRIIa (H), and FcγRIIIa, respectively.
(§2) Analysis of interaction between objective antibody and the FcγR was carried out using Biacore T100 (GE Healthcare). HBS-EP+ (GE Healthcare) was used as the running buffer, and the measurement temperature was set to 25° C. Chips produced by immobilizing the antigen peptide by the amine coupling method to a Series S Sencor Chip CM5 (GE Healthcare), or alternatively, chips produced by allowing preliminarily biotinylated antigen peptides to interact with and immobilize onto a Series S Sensor Chip SA (certified) (GE Healthcare) were used. Antibodies of interest were captured onto an antigen peptide-immobilized chip, and allowed to interact to each FcγR diluted with running buffer. To regenerate and repeatedly use the chip, the antibodies captured on the chip were washed off by reacting 10 mM glycine-HCl, pH 1.5.

[2] = target: T3, FcγRIIIa extracellular domain with C-terminal His tag (human, UniProt P08637 17-208); experiment: as above
T3 construct: extracellular domain; also called FcgRIIIa; 3a; not shown: His tag attached to the C terminus
T3 sequence (P08637 17-208): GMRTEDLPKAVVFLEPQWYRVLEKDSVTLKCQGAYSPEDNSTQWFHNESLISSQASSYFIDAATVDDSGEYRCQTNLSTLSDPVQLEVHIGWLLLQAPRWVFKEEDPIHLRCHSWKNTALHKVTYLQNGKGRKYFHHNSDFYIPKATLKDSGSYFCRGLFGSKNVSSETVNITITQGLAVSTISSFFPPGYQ
Protocol: as §1, §2

[3] = target: T3, FcγRIIIa extracellular domain with …; experiment: SPR (Biacore); He/Con_3a divided by He/Con_2b (FcγRIIIa over FcγRIIb)
Protocol: as §1, §2

FcγRIa [4] = target: T4, FcγRIa (human, UniProt P12314 16-292); experiment: SPR (Biacore); He/Con_1a divided by He/Con_2b (binding to FcγRIa against binding to FcγRIIb)
T4 construct: extracellular domain; Soluble extracellular domain with C-terminal His tag, used as analyte in Biacore; also called FcgRI; 1a; not shown: His tag attached to the C terminus
T4 sequence (P12314 16-292): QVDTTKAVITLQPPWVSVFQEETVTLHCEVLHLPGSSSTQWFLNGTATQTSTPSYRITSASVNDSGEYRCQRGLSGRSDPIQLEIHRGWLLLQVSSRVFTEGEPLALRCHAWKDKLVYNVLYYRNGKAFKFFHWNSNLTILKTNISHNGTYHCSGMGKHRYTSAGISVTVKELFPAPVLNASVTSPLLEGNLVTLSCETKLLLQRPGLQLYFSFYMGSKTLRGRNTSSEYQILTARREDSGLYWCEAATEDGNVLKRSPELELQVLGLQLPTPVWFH
Protocol: as §1, §2

FcγRIIb = target: T2, FcγRIIb; experiment: SPR (Biacore), antibody captured, FcγR as analyte; relative to GpH7-A5/GpH7-B3/GpL16-k0 = 100
Protocol: as §1, §2

FcγRIa [5] = target: T4, FcγRIa; experiment: as above
Protocol: as §1, §2

| He/Con_2b [1] | He/Con_3a [2] | He_3a/2b [3] | He_1a/2b (Ia/IIb) (FcγRIa [4]) | He/Con_2b (FcγRIIb) | He/Con_1a (FcγRIa [5]) | Binder |
| --- | --- | --- | --- | --- | --- | --- |
| 44.8 % of GpH7-A5/GpH7-B3/GpL16-k0 (=100) | 57.8 % of GpH7-A5/GpH7-B3/GpL16-k0 (=100) | 1.29 ratio |  |  |  | GpH7-A5/GpH7-B3 variant E269_18N/GpL16-k0 (antibody, human IgG1, kappa, Heterodimerized anti-glypican-3 IgG1 with the alteration in only one H chain; also called He Ab) heavy 1: not shown heavy 2: not shown light: DIVMTQSPLSLPVTPGEPASISCQASESLVHSNRNTYLHWYLQKPGQSPQLLIYKVSNRFSGVPDRFSGSGSGTDFTLKISRVEAEDVGVYYCSQNTHVPPTFGQGTKVEIERTVAAPSVFIFPPSDEQLKSGTASVVCLLNNFYPREAKVQWKVDNALQSGNSQESVTEQDSKDSTYSLSSTLTLSKADYEKHKVYACEVTHQGLSSPVTKSFNRGEC |
| 46 % of GpH7-A5/GpH7-B3/GpL16-k0 (=100) | 73 % of GpH7-A5/GpH7-B3/GpL16-k0 (=100) | 1.59 ratio |  |  |  | GpH7-A5/GpH7-B3 variant Q295_01G/GpL16-k0 (antibody, human IgG1, kappa, Heterodimerized anti-glypican-3 IgG1 with the alteration in only one H chain; also called He Ab) heavy 1: not shown heavy 2: not shown light: DIVMTQSPLSLPVTPGEPASISCQASESLVHSNRNTYLHWYLQKPGQSPQLLIYKVSNRFSGVPDRFSGSGSGTDFTLKISRVEAEDVGVYYCSQNTHVPPTFGQGTKVEIERTVAAPSVFIFPPSDEQLKSGTASVVCLLNNFYPREAKVQWKVDNALQSGNSQESVTEQDSKDSTYSLSSTLTLSKADYEKHKVYACEVTHQGLSSPVTKSFNRGEC |
| 42.9 % of GpH7-A5/GpH7-B3/GpL16-k0 (=100) | 52.1 % of GpH7-A5/GpH7-B3/GpL16-k0 (=100) | 1.21 ratio |  |  |  | GpH7-A5/GpH7-B3 variant E269_08L/GpL16-k0 (antibody, human IgG1, kappa, Heterodimerized anti-glypican-3 IgG1 with the alteration in only one H chain; also called He Ab) heavy 1: not shown heavy 2: not shown light: DIVMTQSPLSLPVTPGEPASISCQASESLVHSNRNTYLHWYLQKPGQSPQLLIYKVSNRFSGVPDRFSGSGSGTDFTLKISRVEAEDVGVYYCSQNTHVPPTFGQGTKVEIERTVAAPSVFIFPPSDEQLKSGTASVVCLLNNFYPREAKVQWKVDNALQSGNSQESVTEQDSKDSTYSLSSTLTLSKADYEKHKVYACEVTHQGLSSPVTKSFNRGEC |
| 79.7 % of GpH7-A5/GpH7-B3/GpL16-k0 (=100) | 106 % of GpH7-A5/GpH7-B3/GpL16-k0 (=100) | 1.32 ratio |  |  |  | GpH7-A5/GpH7-B3 variant Q295_02A/GpL16-k0 (antibody, human IgG1, kappa, Heterodimerized anti-glypican-3 IgG1 with the alteration in only one H chain; also called He Ab) heavy 1: not shown heavy 2: not shown light: DIVMTQSPLSLPVTPGEPASISCQASESLVHSNRNTYLHWYLQKPGQSPQLLIYKVSNRFSGVPDRFSGSGSGTDFTLKISRVEAEDVGVYYCSQNTHVPPTFGQGTKVEIERTVAAPSVFIFPPSDEQLKSGTASVVCLLNNFYPREAKVQWKVDNALQSGNSQESVTEQDSKDSTYSLSSTLTLSKADYEKHKVYACEVTHQGLSSPVTKSFNRGEC |
|  |  |  | 0.55 ratio | 149 % of control (=100) | 81.5 % of control (=100) | GpH7-A5/GpH7-B3 variant G237_04F/GpL16-k0 (antibody, human IgG1, kappa, Heterodimerized anti-glypican-3 IgG1; alteration in the GpH7-B3 chain only; also called He Ab) heavy 1: not shown heavy 2: not shown light: DIVMTQSPLSLPVTPGEPASISCQASESLVHSNRNTYLHWYLQKPGQSPQLLIYKVSNRFSGVPDRFSGSGSGTDFTLKISRVEAEDVGVYYCSQNTHVPPTFGQGTKVEIERTVAAPSVFIFPPSDEQLKSGTASVVCLLNNFYPREAKVQWKVDNALQSGNSQESVTEQDSKDSTYSLSSTLTLSKADYEKHKVYACEVTHQGLSSPVTKSFNRGEC |
| 38.5 % of GpH7-A5/GpH7-B3/GpL16-k0 (=100) | 51.2 % of GpH7-A5/GpH7-B3/GpL16-k0 (=100) | 1.33 ratio |  |  |  | GpH7-A5/GpH7-B3 variant E269_16H/GpL16-k0 (antibody, human IgG1, kappa, Heterodimerized anti-glypican-3 IgG1 with the alteration in only one H chain; also called He Ab) heavy 1: not shown heavy 2: not shown light: DIVMTQSPLSLPVTPGEPASISCQASESLVHSNRNTYLHWYLQKPGQSPQLLIYKVSNRFSGVPDRFSGSGSGTDFTLKISRVEAEDVGVYYCSQNTHVPPTFGQGTKVEIERTVAAPSVFIFPPSDEQLKSGTASVVCLLNNFYPREAKVQWKVDNALQSGNSQESVTEQDSKDSTYSLSSTLTLSKADYEKHKVYACEVTHQGLSSPVTKSFNRGEC |
| 47.8 % of GpH7-A5/GpH7-B3/GpL16-k0 (=100) | 62.7 % of GpH7-A5/GpH7-B3/GpL16-k0 (=100) | 1.31 ratio |  |  |  | GpH7-A5/GpH7-B3 variant E269_13S/GpL16-k0 (antibody, human IgG1, kappa, Heterodimerized anti-glypican-3 IgG1 with the alteration in only one H chain; also called He Ab) heavy 1: not shown heavy 2: not shown light: DIVMTQSPLSLPVTPGEPASISCQASESLVHSNRNTYLHWYLQKPGQSPQLLIYKVSNRFSGVPDRFSGSGSGTDFTLKISRVEAEDVGVYYCSQNTHVPPTFGQGTKVEIERTVAAPSVFIFPPSDEQLKSGTASVVCLLNNFYPREAKVQWKVDNALQSGNSQESVTEQDSKDSTYSLSSTLTLSKADYEKHKVYACEVTHQGLSSPVTKSFNRGEC |
| 60.8 % of GpH7-A5/GpH7-B3/GpL16-k0 (=100) | 81.5 % of GpH7-A5/GpH7-B3/GpL16-k0 (=100) | 1.34 ratio |  |  |  | GpH7-A5/GpH7-B3 variant Q295_09D/GpL16-k0 (antibody, human IgG1, kappa, Heterodimerized anti-glypican-3 IgG1 with the alteration in only one H chain; also called He Ab) heavy 1: not shown heavy 2: not shown light: DIVMTQSPLSLPVTPGEPASISCQASESLVHSNRNTYLHWYLQKPGQSPQLLIYKVSNRFSGVPDRFSGSGSGTDFTLKISRVEAEDVGVYYCSQNTHVPPTFGQGTKVEIERTVAAPSVFIFPPSDEQLKSGTASVVCLLNNFYPREAKVQWKVDNALQSGNSQESVTEQDSKDSTYSLSSTLTLSKADYEKHKVYACEVTHQGLSSPVTKSFNRGEC |
